Source: patent US20250002565A1 (published 2025)
Positions count from the first letter of the chain named. No end group written: not given here.

B1: HIV-binding peptide #1 (antibody, human IgG1, kappa, V domains shown)
VH: QVQLQESGGGVVQPGRSLRLSCAASGFTFSSYAIHWVRQAPGKGLEWVAVISYDGSNRYYADSVKGRFTISRDNSKNTLYLQMNSLRPEDTAVYYCARDRFSAVASTPTYHNYFYMDVWGKGTTVTVSS
VL: DIQMTQSPSSLSASVGDRVTITCQASQDVNNYLAWYQQKPGQAPRLLIYDASNLETGVPSRFSGSGSGTDFTLTISSLQPEDLATYYCQQYDNTPYTFGQGTKLEIKR
notes: Recombinant, fully human immunoglobulin; also called U1205DB020-1
B2: HIV-binding peptide #10Q (antibody, V domains shown)
VH: B1 VH
notes: also called antibody#10-5Q; U1205DB020-10
B3: HIV-binding peptide #9Q (antibody, human IgG1, V domains shown)
VH: B1 VH
B4: HIV-binding peptide #6 (antibody, human IgG1, kappa, V domains shown)
VH: B1 VH
VL: B1 VL with V29I, N30S
notes: Recombinant, fully human immunoglobulin; also called U1205DB020-6
B5: HIV-binding peptide #3 (antibody, human IgG1, kappa, V domains shown)
VH: B1 VH
VL: B1 VL with T94L
notes: Recombinant, fully human immunoglobulin; also called U1205DB020-3
B6: HIV-binding peptide #10V (antibody, V domains shown)
VH: B1 VH with Q5V
notes: differs from #10Q by Q to V at position 5 of the heavy chain; also called antibody#10-5V; U6323DD200-2
B7: HIV-binding peptide #7 (antibody, human IgG1, kappa, V domains shown)
VH: B1 VH
VL: B1 VL with N30S, T94L
notes: also called U1205DB020-7
B8: HIV-binding peptide #5 (antibody, human IgG1, kappa, V domains shown)
VH: B1 VH
VL: B1 VL with N30S
notes: Recombinant, fully human immunoglobulin; also called U1205DB020-5
B9: HIV-binding peptide #2 (antibody, human IgG1, kappa, V domains shown)
VH: B1 VH
VL: B1 VL with V29I
notes: Recombinant, fully human immunoglobulin; also called U1205DB020-2
B10: HIV-binding peptide #4 (antibody, human IgG1, kappa, V domains shown)
VH: B1 VH
VL: B1 VL with V29I, T94L
notes: Recombinant, fully human immunoglobulin; also called U1205DB020-4
B11: HIV-binding peptide #11Q (antibody, V domains shown)
VH: B1 VH
notes: Heavy chain only with variant CH1/CH2 (hinge cysteines replaced by serines)
B12: HIV-binding peptide #8 (antibody, human IgG1, kappa, V domains shown)
VH: B1 VH
VL: B1 VL with V29I, N30S, T94L
notes: Recombinant, fully human immunoglobulin; also called U1205DB020-8

Assays:
[1] = target: T1, 15-mer peptide LGIWGCSGKLICTTT (SEQ ID NO:1) (HIV, not fully specified; cysteine pairing not given here); assay: indirect ELISA; 15-mer peptide coated 1 ug/ml in DTT; antibody at 1000 ng/ml
T1 construct: also called U1731DB060-1; U173DB060-1
T1 peptide: LGIWGCSGKLICTTT
Procedure: (§1) In a first study, an ELISA was prepared in which the linear (reduced) form of the 15-mer peptide […] (SEQ ID NO:1) was coated onto a solid support and contacted with various concentrations of peptides #1, #2, #3, #4, #5, #6, #7, #8, #9Q, #10Q, and #11Q. A mouse, anti-human IgG Fc-HRP at 0.2 μg/ml was used as a secondary antibody.

[2] = target: T1, 15-mer peptide LGIWGCSGKLICTTT (SEQ ID …); assay: indirect ELISA; 15-mer peptide coated 1 ug/ml in DTT; antibody at 12 ng/ml
Procedure: as §1

[3] = target: T1, 15-mer peptide LGIWGCSGKLICTTT (SEQ ID …); assay: indirect ELISA; 15-mer peptide coated 1 ug/ml in DTT; antibody at 37 ng/ml
Procedure: as §1

[4] = target: T1, 15-mer peptide LGIWGCSGKLICTTT (SEQ ID …); assay: indirect ELISA; 15-mer peptide coated 1 ug/ml in DTT; antibody at 111 ng/ml
Procedure: as §1

[5] = target: T1, 15-mer peptide LGIWGCSGKLICTTT (SEQ ID …); assay: indirect ELISA; 15-mer peptide coated 1 ug/ml in DTT; antibody at 333 ng/ml
Procedure: as §1

[6] = target: T1, 15-mer peptide LGIWGCSGKLICTTT (SEQ ID …); assay: indirect ELISA; 15-mer peptide coated 1 ug/ml in DTT; negative control well of this row (not explained)
Procedure: as §1

[7] = target: T2, gp41 on the membrane of HIV-infected CD4+ cells (HIV); assay: FACS on HIV-infected CD4+ cells, presence of sCD4
T2 construct: whole, on cells; also called CD4 cell-surface gp41
Procedure: (§2) For the FACS binding studies, the CD4+ cells that were infected with HIV expressed HIV viral envelope proteins on the cell membrane surfaces, e.g., gp160=gp41 and gp 120. Binding of proteins #7, #10Q, and #10V was tested in both presence and absence of soluble CD4 (sCD4).

[8] = target: gp41 of HIV isolate SF-162 (clade B clinical isolate) (HIV isolate SF-162, clade B); assay: cell-based or functional assay
[9] = target: T3, recombinant HIV gp41 (HIV); assay: indirect ELISA; gp41 coated 2 µg/ml in DTT (by the table's columns; paragraph 121 calls it the value against SEQ ID NO:1)
T3 construct: also called U7267DC080-1; U1916DG190-1
Procedure: (§3) Variants #9V, #10V, and #11V were prepared with substitutions in the heavy chain. These variants comprised amino acids sequences nearly identical to #9Q, #10Q, and #11Q, respectively, with the only distinction being a substitution of glutamine (Q) for valine (V) at the 5 position of the heavy chain. Exemplary peptides #10Q and #10V were tested in indirect ELISA assays to determine the EC50 values for binding to the epitope having the amino acid sequence of SEQ ID NO:1 and HIV gp41. The results of these studies are shown in Tables 6 and 7 below, as well as FIGS. 2 and 3. Target proteins U7267DC080-1 and U173DB060-1 correspond to recombinant gp41 and the 15-mer peptide […] (SEQ ID NO:1), respectively.

[10] = target: T3, recombinant HIV gp41; assay: indirect ELISA; gp41 coated 2 µg/ml in PBS
Procedure: as §3

[11] = target: T3, recombinant HIV gp41; assay: GenScript binding assay, EC50 vs rgp41 (summary table; per first reading the same value as in Tables 6-8)
[12] = target: T2, gp41 on the membrane of HIV-infected …; assay: FACS on HIV-infected CD4+ cells, absence of sCD4
Procedure: as §2

Binder | ELISA OD [1] | ELISA OD [2] | ELISA OD [3] | ELISA OD [4] | ELISA OD [5] | ELISA OD (Neg. Cont.) [6] | Fluorescent (FACS) counts [7] | IC value vs SF 162 (µg/ml) in PBMC based in vitro assays [8] | EC50 [9] | EC50 [10] | EC50 [11] | Fluorescent (FACS) counts [12]
B1 | 0.079 OD | 0.08 OD | 0.098 OD | 0.076 OD | 0.096 OD | 0.096 OD | – | – | – | – | – | –
B2 | 1.71 OD | 0.14 OD | 0.209 OD | 0.377 OD | 0.863 OD | 0.084 OD | 110000 counts | 0.05 µg/mL | 5.54 µg/mL | 1.78 µg/mL | 1.78 µg/mL | 120000 counts
B3 | 0.745 OD | 0.111 OD | 0.122 OD | 0.171 OD | 0.322 OD | 0.105 OD | – | – | – | – | – | –
B4 | 0.079 OD | 0.077 OD | 0.072 OD | 0.08 OD | 0.078 OD | 0.087 OD | – | – | – | – | – | –
B5 | 0.072 OD | 0.087 OD | 0.074 OD | 0.072 OD | 0.077 OD | 0.083 OD | – | – | – | – | – | –
B6 | – | – | – | – | – | – | 29900 counts | 0.5 µg/mL | 4.59 µg/mL | 1.39 µg/mL | 1.39 µg/mL | 56600 counts
B7 | 0.09 OD | 0.096 OD | 0.098 OD | 0.084 OD | 0.092 OD | 0.088 OD | 25000 counts | 0.5 µg/mL | – | – | 107 µg/mL | 25900 counts
B8 | 0.081 OD | 0.082 OD | 0.081 OD | 0.071 OD | 0.086 OD | 0.078 OD | – | – | – | – | – | –
B9 | 0.068 OD | 0.065 OD | 0.074 OD | 0.188 OD | 0.076 OD | 0.075 OD | – | – | – | – | – | –
B10 | 0.07 OD | 0.073 OD | 0.077 OD | 0.073 OD | 0.079 OD | 0.091 OD | – | – | – | – | – | –
B11 | 0.441 OD | 0.092 OD | 0.119 OD | 0.127 OD | 0.241 OD | 0.104 OD | – | – | – | – | – | –
B12 | 0.076 OD | 0.094 OD | 0.089 OD | 0.1 OD | 0.073 OD | 0.088 OD | – | – | – | – | – | –
